Reference: patent US7732563B2, “Cloning, sequencing and expression of a gene encoding an eukaryotic amino acid racemase, and diagnostic, therapeutic, and vaccination applications of parasite and viral mitogens” (priority 1999, dated 2010)

How the values were obtained:
[1] = system: total spleen cells; experiment: In vitro proliferation assay of splenocytes (3H-thymidine uptake); format: cell-based, mouse
Experimental: Briefly, freshly recovered splenocytes from 8 week old male Balb/c mice seeded at a concentration of 5×10^4 cells/well were incubated for 24, 48 and 72 h in 5% FCS RPMI-1640 medium. A 16 h ^3H-thymidine pulse at 1 μCi/well was performed before harvesting. ^3H-Thymidine uptake was determined in a beta-plate liquid scintillation counter (LKB-Wallac). All points were done in triplicate and the corresponding standard deviation calculated. For comparison, ^3H-thymidine uptake after 48 h in the presence of ConA (10 μg/ml) and LPS (5 μg/ml) was 32000 c.p.m. and 3500 c.p.m., respectively. T-cell depletion was performed by incubating freshly recovered spleen cells for 30 min at 37° C. in the presence of anti-Thy 1.2 monoclonal antibody (Cedarlane) and rabbit complement (Cedarlane). In order to rule out a possible mitogenic effect due to LPS contamination in samples, proliferation assays were also performed on freshly recovered splenocytes from the LPS non-responder mouse strain C3H/Hej. Same levels of proliferation were verified. Balb/c mice were purchased from Charles River, France. C3H/Hej mice were maintained in our animal facilities.
In vitro proliferation is accomplished using freshly recovered splenocytes from BALB/c mice seeded at a density of 5×10^4 cells/well and incubated for 24, 48 and 72 h with increasing concentrations of total parasite supernatants or recombinant TcPa45 protein or other mitogen (0.07-200 μg/ml) with 0.5 μg/ml of the HPLC fractions, or with the conventionally used mitogens concanavalin A (10 μg/ml) and lipopolysaccharide (5 μg/ml) in 5% FCS in RPMI-1640 complete medium. T-cell depletion is accomplished by incubating freshly recovered spleen cells for 30 min. at 37° C. in the presence of monoclonal antibodies against Thy 1.2 and rabbit complement (Cedarlane, Le Perray en Yvelines, France). Analysis of proliferative activity of total splenocytes (5×10^4 cells/well) in the presence of 50 μg/ml enzymatically active rTcPA45 or other mitogen is also compared with the proliferation obtained using the same amounts of rTcPA45 protein or other mitogen lacking racemase activity (by heating for 10 min. at […] or by long term storage at 4° C.). Inhibition of proliferation is obtained by adding to the splenocyte cultures 50 μg/ml rTcPA45 or other mitogen pre-incubated for 10 min. at 37° C. with 1 mM inhibitor, either specific (pyrrole-2-carboxylic acid) or nonspecific (iodoacetamide or iodoacetate). Competitive assays of proliferative activity by 50 μg/ml rtcPA45 or other mitogen are done by adding increasing concentrations of specific substrates i.e., proline racemase substrates (L- or D-proline) for the mitogen rTcPA45 ranging from 3 mM to 50 mM. Controls include the incubation of splenocytes (5×10^4 cells/well) with substrate alone, i.e., 50 mM L- or D-proline in RPMI medium alone for prline racemase. Cultures are collected after a 16-hour pulse or 1 μCi/well ^3H-thymidine uptake was determined in a beta-plate liquid scintillation counter (LKB-Wallac, Orsay, France). All data points are obtained in triplicate and the corresponding standard deviation is calculated.
5×10^5 naive spleen cells/well (96 well plate) were stimulated in vitro with different doses of rTcPA45 (ranging in FIG. 4b from 0.8 to 200 μg/ml final) for 24, 48 and 72 h, at 37° C., 5% CO2. Cultures were pulsed with ^3H-Thymidine (1 μCi/well) for 16-18 h before harvesting. ^3H-thymidine incorporation was obtained after counting using a beta-plate. Results present arithmetic means of c.p.m. (counts/minute) from 6 wells/dose of rTcPA45 or wells containing medium alone (+/−SD of the means). (FIG. 4b)

[2] = system: spleen cells / Ig-producing B cells; experiment: Mitogenicity of rTcPA45 in vivo assessed by ELISPOT; set-up: species or system mouse
Experimental: BALB/c mice were injected or not with 50 μg of rTcPA45 (i.p.), and spleen cells assayed day 7 after injection. Results represent total numbers of spleen cells, total number of B cells producing IgM, IgG2a, or IgG2b isotypes, and total numbers of isotype-producing B cells specific of the protein.
Mice were injected or not with 50 μg of iTcPA45 (i.p.). […] Numbers of Ig-secreting cells (total or specific to rTcPA45) were determined by Elispot assay, as follows:
Flat bottomed 96 well ELISA plates, were coated with either goat anti-mouse Ig or with rTcPA45 and incubated at 4° C. overnight. Plates were blocked with PBS-gelatin, washed with PBS-Tween and with RPMI medium. 100 μl of different spleen cell concentrations per well (in RPMI containing 2% FCS) were incubated for 8 hours at 37° C., 5% CO2. A row in the plate containing serial dilutions of purified immunoglobulin (IgM, IgG2a, or IgG2b) was used as standard. After lysis of the cells with H20-Tween, plates were then washed with PBS-Tween and incubated with respective biotin-labeled antibodies directed to (IgM, IgG2b, or IgG2a isotypes), overnight at 4EC. After washing, plates were incubated for 45-60 minutes with avidin-alkaline phosphatase and further incubated with substrate (2-amino-2-methyl-propanol buffer containing BCIP) 2-4 hours, 37° C. (until the spots are “dark” blue). Spots correspond to immunoglobulin-producing B-cell (of a particular isotype) directed to the coated antigen (here: goat anti-mouse immunoglobulins or rTcPA45). Spots are then counted and numbers corrected to total number of spleen cells according to the dilution. (See Table I and FIG. 7.)

[3] = system: Trypanosoma cruzi; experiment: rTcPA45 sub-mitogenic immunization followed by infective challenge, parasitemia; format: in vivo
Experimental: FIG. 14B. rTcPA45 injection. 6 week old BALB/c mice were injected intraperitoneally (i.p.) with 10 ηg of rTcPA45 and then boosted i.p. one week later with 50 μg of rTcPA45. Mice were challenged 1 week after the boost with 10^4 infective forms of the parasite/mouse, and the parasitemia was scored during 30 days.
As with classical B cell mitogens, rTcPA45 mitogenicity is dose-dependent (FIG. 1). As for classical B cell mitogens, mouse specific immune responses directed to mitogenic rTcPA45 is indeed possible (Western blot FIG. 12) following a protocol of immunization which consisted of with 1 injection (i.p.) of a sub-mitogenic (10 ng/mouse) dose of the protein followed by an additional boost with a mitogenic dose of rTcPA45 (50 μg/mouse) one week later.
These additional results do support the claim that mitogenic moieties are potential targets for vaccination approaches against Trypanosoma cruzi infection. (See FIG. 14(b).)

[4] = spleen lymphocytes, up to 72 h culture
[5] = BALB/c mice, 50 μg/mouse i.p., 7 days after injection

B1: rTcPA45: recombinant T. cruzi polyclonal activator 45, B-cell mitogen and proline racemase, codons 30-423 with C-terminal 6×His tag, from E. coli (protein)
chain: RTGQEKLLFDQKYKIIKGEKKEKKKNQRANRREHQQKREIMRFKKSFTCIDMHTEGEAARIVTSGLPHIPGSNMAEKKAYLQENMDYLRRGIMLEPRGHDDMFGAFLFDPIEEGADLGMVFMDTGGYLNMCGHNSIAAVTAAVETGIVSVPAKATNVPVVLDTPAGLVRGTAHLQSGTESEVSNASIINVPSFLYQQDVVVVLPKPYGEVRVDIAFGGNFFAIVPAEQLGIDISVQNLSRLQEAGELLRTEINRSVKVQHPQLPHINTVDCVEIYGPPTNPEANYKNVVIFGNRQADRSPCGTGTSAKMATLYAKGQLRIGETFVYESILGSLFQGRVLGEERIPGVKVPVTKDAEEGMLVVTAEITGKAFIMGFNTMLFDPTDPFKNGFTLKQ
modifications: left off: small tags and cut ends
B1 was tested, and the “mitogenic activity of inactivated rTcPA45” value ([1]; inactivated by being heated or by long storage at 4° C.) was “abolished”, the “concentration at which proliferation peaks (bell-shaped dose-response curve)” value [1, 4] was 50 µg/mL and the “concentration from which proliferation starts (bell-shaped dose-response curve)” value [1, 4] was 0.8 µg/mL. For the same molecule, the “Ig-secreting B cells directed to TcPA45” value ([2]; 50 μg rTcPA45 i.p., day 7) was “complete lack”, the “IgM secreting cells directed to the injected protein” value ([2]; 50 μg rTcPA45 i.p., day 7) was “less than 0.5%” and the “increase in total numbers of Ig-secreting B cells (IgM, IgG2a, IgG2b isotypes)” value ([2]; 50 μg rTcPA45 i.p., day 7) was 3-6 fold. For the same molecule, the “increase in total spleen cell numbers” value ([2]; 50 μg rTcPA45 i.p., day 7) was 2 fold, the “increase in spleen cell numbers” value ([2]; 50 μg rTcPA45 in vivo, by day 4) was 2 fold and the “rTcPA45-specific Ig-secreting B cells” value ([2]; 50 μg rTcPA45 in vivo, day 4) was “complete lack”. For the same molecule, the “Total Number of Ig-producing B cells ANTI-rTc45MIT: IgG2a-B cells anti 45” value [2, 5] was “none”, the “Total Number of Ig-producing B cells ANTI-rTc45MIT: IgG2b-B cells anti 45” value [2, 5] was “none” and the “Total Number of Ig-producing B cells ANTI-rTc45MIT: IgM-B cells anti 45” value [2, 5] was 84. For the same molecule, the “Total Number of Ig-producing B cells: IgG2a-producing cells” value [2, 5] was 9866 ± 3000, the “Total Number of Ig-producing B cells: IgG2b-producing cells” value [2, 5] was 14633 ± 3287 and the “Total Number of Ig-producing B cells: IgM-producing cells” value [2, 5] was 371666 ± 94495. For the same molecule, the parasitemia control ([3]; BALB/c mice, 10 ng i.p. then boost 50 μg i.p. one week later, challenge 10^4 parasites/mouse) was 90-95% and the “parasitemia control compared with DNA vaccination (85% decrease)” value ([3]; sub-mitogenic doses of active rTcPA45 intraperitoneally 2 weeks before infective challenge) was “even higher levels of parasitemia control”.
